Patent publication US7202329 (MYRIAD GENETICS, dated 2007)

Key:
[1] = target: T1, mitotic spindle coiled-coil related protein (aa 701-1082) (UniProt Q96R06 701-1082); test: yeast two-hybrid
T1 construct: range 701-1082
T1 sequence (looked up): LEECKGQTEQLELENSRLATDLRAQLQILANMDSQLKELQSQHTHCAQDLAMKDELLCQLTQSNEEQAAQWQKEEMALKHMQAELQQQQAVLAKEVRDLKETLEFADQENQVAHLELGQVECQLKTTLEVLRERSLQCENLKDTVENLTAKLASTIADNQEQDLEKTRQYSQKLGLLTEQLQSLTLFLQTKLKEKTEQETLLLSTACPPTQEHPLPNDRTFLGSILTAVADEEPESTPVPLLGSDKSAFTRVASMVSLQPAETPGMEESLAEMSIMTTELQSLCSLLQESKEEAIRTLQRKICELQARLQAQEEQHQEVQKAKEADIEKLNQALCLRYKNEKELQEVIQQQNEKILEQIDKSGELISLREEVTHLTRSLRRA

pallid (aa 21-172) = target: T2, pallid (aa 21-172) (UniProt Q9UL45 21-172); test: yeast two-hybrid
T2 construct: range 21-172
T2 sequence (looked up): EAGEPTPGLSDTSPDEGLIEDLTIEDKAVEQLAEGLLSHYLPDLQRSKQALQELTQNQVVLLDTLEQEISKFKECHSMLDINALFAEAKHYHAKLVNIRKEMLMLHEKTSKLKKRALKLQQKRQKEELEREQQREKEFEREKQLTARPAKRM

[2] = target: T3, GTPase-activating protein 1 (aa 1413-1567) (UniProt P46940 1413-1567); test: yeast two-hybrid
T3 construct: range 1413-1567; also called IQGAP1; IQGAP
T3 sequence (looked up): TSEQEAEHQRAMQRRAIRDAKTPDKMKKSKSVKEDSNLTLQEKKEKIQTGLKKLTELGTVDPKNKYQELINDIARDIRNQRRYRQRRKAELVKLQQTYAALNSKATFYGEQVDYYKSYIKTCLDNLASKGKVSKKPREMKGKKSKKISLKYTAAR

[3] = target: T4, mitotic spindle coiled-coil related protein (aa 668-895) (UniProt Q96R06 668-895); test: yeast two-hybrid
T4 construct: range 668-895
T4 sequence (looked up): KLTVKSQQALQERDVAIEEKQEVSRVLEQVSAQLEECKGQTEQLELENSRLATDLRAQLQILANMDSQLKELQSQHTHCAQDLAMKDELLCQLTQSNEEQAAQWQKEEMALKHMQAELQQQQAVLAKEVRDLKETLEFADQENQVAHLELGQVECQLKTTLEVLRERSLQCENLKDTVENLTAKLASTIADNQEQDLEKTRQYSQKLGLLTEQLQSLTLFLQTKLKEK

[4] = target: T5, GTPase-activating protein 1 (aa 1299-1555) (UniProt P46940 1299-1555); test: yeast two-hybrid
T5 construct: range 1299-1555; also called IQGAP1; IQGAP
T5 sequence (looked up): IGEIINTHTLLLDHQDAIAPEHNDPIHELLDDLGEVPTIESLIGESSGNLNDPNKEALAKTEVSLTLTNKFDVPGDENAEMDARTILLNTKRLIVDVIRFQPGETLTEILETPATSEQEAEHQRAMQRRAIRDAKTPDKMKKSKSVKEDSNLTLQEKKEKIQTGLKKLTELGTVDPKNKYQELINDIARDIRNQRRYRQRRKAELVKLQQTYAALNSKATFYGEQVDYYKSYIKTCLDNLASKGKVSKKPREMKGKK

[5] = target: T6, GTPase-activating protein 1 (aa 1419-1657) (UniProt P46940 1419-1657); test: yeast two-hybrid
T6 construct: range 1419-1657; also called IQGAP1; IQGAP
T6 sequence (looked up): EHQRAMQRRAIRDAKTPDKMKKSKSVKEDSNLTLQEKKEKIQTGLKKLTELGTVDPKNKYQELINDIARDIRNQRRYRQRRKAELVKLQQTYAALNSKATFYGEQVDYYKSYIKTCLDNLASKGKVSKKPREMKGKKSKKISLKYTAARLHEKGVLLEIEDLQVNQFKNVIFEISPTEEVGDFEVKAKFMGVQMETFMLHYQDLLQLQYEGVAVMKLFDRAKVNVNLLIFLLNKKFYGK

[6] = target: T7, hook2 protein (aa 201-559) (UniProt Q96ED9 201-559); test: yeast two-hybrid
T7 construct: range 201-559
T7 sequence (looked up): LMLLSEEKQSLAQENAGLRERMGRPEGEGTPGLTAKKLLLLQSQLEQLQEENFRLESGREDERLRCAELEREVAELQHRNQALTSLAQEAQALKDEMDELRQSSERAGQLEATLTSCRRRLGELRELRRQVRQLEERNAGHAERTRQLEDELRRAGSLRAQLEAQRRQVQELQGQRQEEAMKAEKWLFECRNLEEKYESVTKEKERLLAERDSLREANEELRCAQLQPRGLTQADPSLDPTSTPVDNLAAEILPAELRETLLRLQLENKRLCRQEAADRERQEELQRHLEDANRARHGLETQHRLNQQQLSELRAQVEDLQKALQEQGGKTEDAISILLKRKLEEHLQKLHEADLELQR

[7] = target: T8, VPS28 protein (aa 27-221) (human, UniProt Q9UK41 27-221); test: yeast two-hybrid, breast and prostate cancer library, bait Tsg101 240-391
T8 sequence (looked up): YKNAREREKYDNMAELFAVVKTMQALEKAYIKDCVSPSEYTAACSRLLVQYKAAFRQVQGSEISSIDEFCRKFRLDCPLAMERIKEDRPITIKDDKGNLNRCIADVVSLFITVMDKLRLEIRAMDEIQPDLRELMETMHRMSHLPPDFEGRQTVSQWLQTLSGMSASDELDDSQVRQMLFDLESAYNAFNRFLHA

Measured: binding result

B1: Tsg101 (aa 240-391) (other, human, UniProt Q99816 240-390, looked up)
chain: WRMKEEMDRAQAELNALKRTEEDLKKGHQKLEEMVTRLDQEVAEVDKNIELLKKKDEELSSALEKMENQSENNDIDEVIIPTAPLYKQILNLYAEENAIEDTIFYLGEALRRGVIDLDVFLKHVRLLSRKQFQLRALMQKARKTAGLSDLY
notes: range 240-391; also called C-terminal fragment of Tsg101; amino acid residues 240-390
binds: all assays above
